# Laboratory results from patent US20260265321A1, “PEPTIDE AND POLYPEPTIDE INHIBITING THE NF-KB SIGNALING PATHWAY” (Centre National de la Recherche Scientifique, priority 2023, published 2026).
# T1: G1-IKKβ L654D/W655D (GPCA construct) (human, UniProt O14920 1-756)
# T1 construct: not shown: Gluc1 fragment of Gaussia princeps luciferase and flexible 20 amino acid linker, N-terminal
# T1 sequence (looked up): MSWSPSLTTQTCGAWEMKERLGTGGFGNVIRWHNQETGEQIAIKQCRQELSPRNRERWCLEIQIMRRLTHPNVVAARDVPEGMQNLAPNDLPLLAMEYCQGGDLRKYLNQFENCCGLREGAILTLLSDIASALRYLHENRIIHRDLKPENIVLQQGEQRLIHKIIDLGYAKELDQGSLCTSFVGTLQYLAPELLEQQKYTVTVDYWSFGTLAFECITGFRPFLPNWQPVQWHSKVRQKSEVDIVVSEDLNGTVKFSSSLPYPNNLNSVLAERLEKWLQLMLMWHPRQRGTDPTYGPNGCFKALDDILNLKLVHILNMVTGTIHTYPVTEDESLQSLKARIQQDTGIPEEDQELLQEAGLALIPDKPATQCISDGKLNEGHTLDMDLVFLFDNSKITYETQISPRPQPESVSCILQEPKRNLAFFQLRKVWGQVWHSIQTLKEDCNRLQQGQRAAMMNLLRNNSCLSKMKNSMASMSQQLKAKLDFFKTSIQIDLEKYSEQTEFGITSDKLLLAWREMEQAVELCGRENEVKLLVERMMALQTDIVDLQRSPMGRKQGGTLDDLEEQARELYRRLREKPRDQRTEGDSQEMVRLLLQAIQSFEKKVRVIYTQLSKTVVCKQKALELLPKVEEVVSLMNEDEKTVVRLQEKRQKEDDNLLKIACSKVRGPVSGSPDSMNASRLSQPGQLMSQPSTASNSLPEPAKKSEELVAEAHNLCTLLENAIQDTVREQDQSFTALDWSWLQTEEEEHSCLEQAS
# T2: G1-IKKα, full-length wt IKKα fused to the Gluc1 fragment (human, UniProt O15111 1-745)
# T2 construct: Expressed in HEK293T cells for GPCA; full-length; also called Gluc1-IKKα; not shown: Gluc1 fragment of Gaussia princeps luciferase and flexible 20 amino acid linker, N-terminal
# T2 sequence (looked up): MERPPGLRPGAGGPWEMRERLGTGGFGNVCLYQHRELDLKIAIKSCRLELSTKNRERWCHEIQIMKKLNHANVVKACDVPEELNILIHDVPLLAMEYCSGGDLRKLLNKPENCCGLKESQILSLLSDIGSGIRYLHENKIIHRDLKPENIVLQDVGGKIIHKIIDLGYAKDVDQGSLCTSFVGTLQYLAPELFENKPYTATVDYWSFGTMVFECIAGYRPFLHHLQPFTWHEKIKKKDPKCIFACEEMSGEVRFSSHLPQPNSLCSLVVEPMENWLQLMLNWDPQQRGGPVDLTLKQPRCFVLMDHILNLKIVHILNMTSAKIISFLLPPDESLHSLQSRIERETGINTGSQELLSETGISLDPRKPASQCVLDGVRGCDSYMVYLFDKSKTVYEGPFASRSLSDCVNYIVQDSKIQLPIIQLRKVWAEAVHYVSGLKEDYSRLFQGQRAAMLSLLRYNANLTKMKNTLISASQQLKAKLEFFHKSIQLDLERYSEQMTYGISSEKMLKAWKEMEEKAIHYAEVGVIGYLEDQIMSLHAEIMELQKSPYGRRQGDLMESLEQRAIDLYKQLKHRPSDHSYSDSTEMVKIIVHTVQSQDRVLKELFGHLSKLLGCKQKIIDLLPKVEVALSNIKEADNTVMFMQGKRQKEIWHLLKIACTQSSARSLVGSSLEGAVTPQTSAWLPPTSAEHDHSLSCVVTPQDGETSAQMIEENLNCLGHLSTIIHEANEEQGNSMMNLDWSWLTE
# T3: G1-IKKβ, full-length wt IKKβ fused to the Gluc1 fragment (human, UniProt O14920 1-756)
# T3 construct: Expressed in HEK293T cells for GPCA; full-length; also called Gluc1-IKKβ; not shown: Gluc1 fragment of Gaussia princeps luciferase and flexible 20 amino acid linker, N-terminal
# T3 sequence (looked up): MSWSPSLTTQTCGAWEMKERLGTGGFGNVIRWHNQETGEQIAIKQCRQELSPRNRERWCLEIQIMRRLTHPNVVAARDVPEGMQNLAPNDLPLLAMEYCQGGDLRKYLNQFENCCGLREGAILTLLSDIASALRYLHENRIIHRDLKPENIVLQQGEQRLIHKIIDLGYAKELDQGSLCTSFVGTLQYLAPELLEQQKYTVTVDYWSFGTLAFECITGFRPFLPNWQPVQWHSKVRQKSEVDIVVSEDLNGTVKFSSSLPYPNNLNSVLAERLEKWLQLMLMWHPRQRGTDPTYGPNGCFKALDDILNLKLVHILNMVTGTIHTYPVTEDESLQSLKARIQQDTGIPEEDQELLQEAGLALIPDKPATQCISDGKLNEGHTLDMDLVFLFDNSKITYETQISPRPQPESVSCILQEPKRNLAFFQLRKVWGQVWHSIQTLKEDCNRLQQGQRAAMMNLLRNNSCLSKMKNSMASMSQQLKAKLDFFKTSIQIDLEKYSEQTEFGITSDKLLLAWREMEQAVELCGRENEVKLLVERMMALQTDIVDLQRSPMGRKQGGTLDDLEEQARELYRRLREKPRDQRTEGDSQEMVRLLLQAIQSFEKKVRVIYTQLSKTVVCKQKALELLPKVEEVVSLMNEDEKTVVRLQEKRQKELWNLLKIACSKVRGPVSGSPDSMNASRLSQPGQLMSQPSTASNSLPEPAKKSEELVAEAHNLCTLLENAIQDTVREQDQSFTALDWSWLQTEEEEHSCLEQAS
# T4: IKKα(10-667) S176E/S180E homodimer, 6×His tag removed (human, UniProt O15111 10-667)
# T4 construct: also called purified IKKα
# T4 sequence (looked up): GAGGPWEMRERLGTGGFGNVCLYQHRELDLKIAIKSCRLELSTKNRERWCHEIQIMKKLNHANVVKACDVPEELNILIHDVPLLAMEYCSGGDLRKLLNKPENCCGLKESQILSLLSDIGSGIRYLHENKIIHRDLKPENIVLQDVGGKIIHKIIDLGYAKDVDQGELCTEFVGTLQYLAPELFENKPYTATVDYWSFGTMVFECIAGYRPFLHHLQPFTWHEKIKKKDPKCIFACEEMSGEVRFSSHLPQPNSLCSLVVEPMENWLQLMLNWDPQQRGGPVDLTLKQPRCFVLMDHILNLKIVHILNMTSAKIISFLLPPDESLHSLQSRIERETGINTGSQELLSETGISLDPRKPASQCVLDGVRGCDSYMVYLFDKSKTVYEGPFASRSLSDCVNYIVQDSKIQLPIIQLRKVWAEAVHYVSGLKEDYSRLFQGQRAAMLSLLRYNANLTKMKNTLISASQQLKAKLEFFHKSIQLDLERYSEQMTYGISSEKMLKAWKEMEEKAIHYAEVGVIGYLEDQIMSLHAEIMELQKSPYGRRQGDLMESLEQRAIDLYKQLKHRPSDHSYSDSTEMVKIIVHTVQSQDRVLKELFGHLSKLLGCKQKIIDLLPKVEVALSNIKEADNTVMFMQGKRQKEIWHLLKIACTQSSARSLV
# Experiments:
# [1] = biological target: T1, G1-IKKβ L654D/W655D (GPCA construct); test: GPCA in HEK293T cells
# Method: (§1) HEK293T cells were transfected using the reverse transfection method. Transfection mixes containing 100 ng of pSPICA-N2 and 100 ng of pSPICA-N1 plasmids expressing test proteins plus JetPEI® (Polyplus transfection) were dispensed in white 96-well plates. HEK293T cells were then seeded on the DNA mixes at a concentration of 4.2×10^4 cells per well. 48 hours after transfection, cells were washed with 50 μl of PBS and lysed with 40 μl of Renilla lysis buffer (Promega, E2820) for 30 minutes with agitation. Gaussia princeps luciferase enzymatic activity was measured using a Berthold Centro LB960 luminometer by injecting 50 μl per well of luciferase substrate reagent (Promega, E2820) and counting luminescence for 10 seconds. Results are expressed as a fold change normalized over the sum of controls, specified herein as normalized luminescence ratio (NLR) 29. For a given protein pair A/B, NLR=(Gluc1-A+Gluc2-B)/[(Gluc1-A+Gluc2)+(Gluc1+Gluc2-B)]. All interactions were measured in three independent experiments, with each experiment being carried out in triplicate. The expression levels of Gluc1- and Gluc2-fused proteins were checked by Western blotting. 24 hours post-transfection, HEK293T cells were collected, lysed by incubation on ice and centrifuged. Aliquots of cleared supernatants were loaded onto an 10% SDS-PAGE gel.
# [2] = biological target: T2, G1-IKKα, full-length wt IKKα fused to …; test: GPCA (Gaussia princeps protein complementation assay) in HEK293T cells, NLR, mean ± SD of triplicates
# Method: as §1
# [3] = biological target: T3, G1-IKKβ, full-length wt IKKβ fused to …; test: as above
# Method: as §1
# [4] = biological target: T4, IKKα(10-667) S176E/S180E homodimer, …; test: ITC, given as a lower bound
# [5] = biological target: T4, IKKα(10-667) S176E/S180E homodimer, …; test: ITC, 25 °C, 1:1 model; values called estimates
# Method: (§2) All experiments were performed in ITC buffer (20 mM HEPES pH 8.0, 150 mM NaCl, 1 mM TCEP) unless otherwise stated. […] Just before the ITC experiments, IKKα or IKKβ samples were concentrated, incubated at room temperature for 30 minutes and centrifuged at 11000 g to remove eventual precipitate. The final concentrations of IKKα and IKKβ in the sample cell varied between 22 and 50 μM depending on the measurement. […] The concentration of peptides in the syringe varied between 220 and 975 μM depending on the measurement.
# (§3) All ITC experiments were performed at 25° C. The data were fitted to a 1:1 binding model. […] All data were processed using NITPIC software and global fitting of two datasets was carried out using SEDPHAD.
# [6] = biological target: T4, IKKα(10-667) S176E/S180E homodimer, …; test: ITC, 25 °C, 1:1 model; values called estimates; table value; footnote calls it an estimate
# Method: as §2, §3
Binder,binding result [1],binding result [2],binding result [3],Kd [4] [µM],TΔS [5] [kcal/mol],ΔG [5] [kcal/mol],ΔH [5] [kcal/mol],Kd [6] [µM]
"G2-IκBα(73-317) (other, UniProt P25963 73-317, looked up, range 73-317; Expressed in HEK293T cells for GPCA; also called N-terminal truncated IκBα (73-317) construct; not shown: Gluc2 fragment of Gaussia princeps luciferase and flexible 20 amino acid linker, N-terminal) DGDSFLHLAIIHEEKALTMEVIRQVKGDLAFLNFQNNLQQTPLHLAVITNQPEIAEALLGAGCDPELRDFRGNTPLHLACEQGCLASVGVLTQSCTTPHLHSILKATNYNGHTCLHLASIHGYLGIVELLVSLGADVNAQEPCNGRTALHLAVDLQNPDLVSLLLKCGADVNRVTYQGYSPYQLTWGRPSTRIQQQLGQLTLENLQMLPESEDEESYDTESEFTEFTEDELPYDDCVFGGQRLTL",no binding,binds,binds,,,,,
LSSANSLYDDIECFLMELEQPA [synthetic IRF7 pep],,,,> 90,-1.2,-5.5,-6.7,~90
